Source: the supplement of paper PMC12042874
± gives the uncertainty stated by the source.

Assay: amyloid nucleation score (Sup35N fusion, yeast selection) (log enrichment); library NNK2; higher = more nucleation; inactive = no reads after selection
Outline: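 DiMSum was used to calculate nucleation scores as log enrichment of output over input reads, centred on the mode score of non-aggregating sequences. Sequences with fewer than 100 input reads were not scored. Input and output came from Illumina sequencing of plasmid inserts in psi-negative yeast expressing peptides of 20 random codons fused to Sup35N, induced 24 hours with 100 μM copper sulfate and then grown 7 days at 30°C on medium lacking adenine and uracil.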

| Substance | amyloid nucleation score |
| --- | --- |
| QYRCGRRLVQRSEVVIVPVC | inactive |
| QYSTSV | -0.548 ± 0.61 |
| QYTRDFVRGTSQF | -0.949 ± 1.1 |
| QYVSLYAVKRIVEIVQDKCA | 0.012 ± 0.39 |
| RAATYYQFVVLVCKQSDFKR | 5.77 ± 0.095 |
| RALRVRILYCEARRMCFMAN | 0.236 ± 1.1 |
| RANGLSFCTSLLLGEYLNNG | 2.63 ± 0.078 |
| RANGSSYEREVA | 0.819 ± 0.47 |
| RARFWINGFRVL | inactive |
| RATPTSLSIAMFCLFGHALL | 5.87 ± 0.079 |
| RATRLIRGTWYKKLKRVARI | 1.32 ± 0.18 |
| RATSVSILVQLGETLFCEYT | 0.56 ± 0.2 |
| RAVTRVKHICLSATRSCDVE | 0.523 ± 0.21 |
| RAYPNLENFLLWRMSNSYLC | -0.542 ± 0.63 |
| RCEAAMWMLASYRVCVTLSC | -0.525 ± 1.1 |
| RCGKCGLYS | 0.067 ± 0.5 |
| RCIDFDSSCASTNYGSVLWA | 1.09 ± 0.38 |
| RCLLTYSVEYWRIFGTSPDS | 0.157 ± 0.5 |
| RCLPSIFDPMRVTRVLPELY | -0.017 ± 1 |
| RCTRSR | 3.4 ± 0.12 |
| RCYGVRTHGNLKQIMTKMTE | 0.602 ± 0.24 |
| RDFYRWNMQ | 3.8 ± 0.069 |
| RDIMR | 0.57 ± 0.5 |
| RDLASSSS | -1.1 ± 0.41 |
| RDMGPLVNAPVA | 0.282 ± 0.46 |

| Substance | amyloid nucleation score |
| --- | --- |
| RDPVFIT | -1.44 ± 0.76 |
| RDVFDMSSPTIAQCNVVRGM | -0.448 ± 0.32 |
| RDVFTFYNKGEFERCQTLVY | 0.092 ± 1.1 |
| RDVVSLGLQEGNSRMRHTGG | 0.82 ± 0.23 |
| RDWRVFIYFMGNVVLDY | 5.59 ± 0.08 |
| REFLIYFCFQIMCCRTYGPA | 5.125 ± 0.046 |
| RERMRY | 1.64 ± 0.18 |
| RFAFFVYPTYMRMTVTVLSY | inactive |
| RFGFRSGPTSSRMWYSFLEF | 3.15 ± 0.11 |
| RFHFSDWR | inactive |
| RFLEALTVRHCSPL | 4.71 ± 0.06 |
| RFLTCGNFMR | 0.214 ± 0.74 |
| RFPVGRLFWQEFRYSDQGVA | 1.17 ± 0.23 |
| RFQWSCEVRESPPLNVDLMG | 1.41 ± 0.44 |
| RFRWTSVSRVKGCFNKMYPS | 0.1 ± 0.3 |
| RFSLYNLIIEVSAVVEFLWT | inactive |
| RFVIVIPQFYYVYFLRRSWT | -1.24 ± 1 |
| RFWLNCCWRTCSTTFLNWMK | 0.472 ± 0.6 |
| RFYRSVNFKLYLVA | inactive |
| RGADIAVRNFFDYQRRRWCN | 0.222 ± 0.44 |
| RGCIGK | -0.161 ± 0.65 |
| RGFVLETLWSMTIVVQKFNL | inactive |
| RGGVVNCRFRAHFMWL | 5.779 ± 0.041 |
| RGLLLSTMRGHIDSLRLS | inactive |
| RGSFYNGRS | 0.049 ± 0.76 |

| Substance | amyloid nucleation score |
| --- | --- |
| RGTAIKILYL | 5.46 ± 0.069 |
| RGVGYYRGSICTWFNWAAMW | 1.83 ± 0.16 |
| RGVYKHSPHLIT | -0.127 ± 1.1 |
| RGYACCL | -0.574 ± 0.48 |
| RGYDLVGSIIFSMQKRLRKK | -1.24 ± 1.1 |
| RHADF | 1.39 ± 0.27 |
| RHGMNGRLTFLASTYSASRL | 0.349 ± 0.22 |
| RHKYMIKVILRHFTFIIIGS | -0.05 ± 0.62 |
| RHRKMS | -0.496 ± 0.23 |
| RIEIRQSLEDRLRAVSMAET | 1.64 ± 0.3 |
| RIFVIGNFVDCWLRLWT | 0.256 ± 0.65 |
| RIITGPGWTVAGSPVRGVRG | 1.68 ± 0.19 |
| RIKMGSSGNLCFIWSMHMYD | 6.496 ± 0.044 |
| RILLRRAKFGSR | 0.432 ± 0.21 |
| RIMTFFVMPDSRRRVDHNQV | 0.074 ± 1 |
| RINGRRWGFTWVASGLEYFG | 1.87 ± 0.11 |
| RINIFLRITFHNLLQLNRSG | 6.04 ± 0.081 |
| RISKRAHECLIMQG | -0.108 ± 1.1 |
| RISLERGNDFVTWVVYMKWA | -0.081 ± 0.34 |
| RIVCSNSWR | -0.113 ± 1.1 |
| RIVMKRRFYCKSWSLIVHPG | -0.826 ± 0.28 |
| RIYLGRQYYRSEGLKQLVNG | 0.151 ± 0.63 |
| RKEVCTVRNLHSRFRGGAIR | -0.119 ± 0.55 |
| RKLIFVMTRRLGRSSRTVLM | 0.112 ± 1.1 |
| RKPLLHLVRFRWNNPLDNE | -1.03 ± 0.76 |

| Substance | amyloid nucleation score |
| --- | --- |
| RKSYPRIYVHPSWKCVGDRY | 0.066 ± 0.41 |
| RKTLVGDNLNEGVKSWGWSR | -1.29 ± 0.45 |
| RKWQED | 0.488 ± 0.47 |
| RLAVVLVPRIGYSSKSSETR | 1.11 ± 0.34 |
| RLCANDLIIGVEMGEGVFDY | 1.1 ± 0.31 |
| RLDMYGLLINWSSVCLYNNI | 0.257 ± 0.21 |
| RLEALRCLSYITSSSLYRCP | 0.163 ± 0.41 |
| RLEEDGSD | 7.125 ± 0.067 |
| RLENMCMASPR | 0.464 ± 0.46 |
| RLFVPFVFFQAMPTEREPFH | -0.79 ± 1 |
| RLFYGCITGIVVSSILGVCM | 2.47 ± 0.21 |
| RLFYYSSFYKDY | inactive |
| RLGRC | 0.94 ± 0.33 |
| RLIIPIQSCLWGGWYRTGET | 8.106 ± 0.054 |
| RLILY | -0.775 ± 0.43 |
| RLINRSDEVYSFLFKRRGSK | inactive |
| RLIRFSIMEV | -0.291 ± 0.54 |
| RLLHYAFAFTARV | 3.15 ± 0.068 |
| RLLSTCMILMMASRTCYVYN | 0.69 ± 0.52 |
| RLMFLVFSESSKYSALHMWG | 0.939 ± 0.19 |
| RLPHSVSALSLKILGGARAR | 0.02 ± 0.56 |
| RLRFPSPFRTVNWSFIRFAR | 5.03 ± 0.069 |
| RLRNI | 0.399 ± 0.2 |
| RLRYM | -0.631 ± 0.76 |
| RLSDLTQVLLDSLTRCGWWG | 0.841 ± 0.43 |

| Substance | amyloid nucleation score |
| --- | --- |
| RLSFQSCCLPFVYWNWW | 7.738 ± 0.048 |
| RLSGRVTCSVNVGHSLKGTV | 4.529 ± 0.045 |
| RLSLNFDVRLC | 1.21 ± 0.61 |
| RLSPPLCVLIYIMRYLNGYW | 0.42 ± 0.66 |
| RLTQCLVHRPYPV | 0.572 ± 0.3 |
| RLYKSARVASHVDLGCTFRC | 1.35 ± 0.18 |
| RMIPCLLRFGTYLFF | -0.509 ± 1.1 |
| RMNWGSNFLEE | -0.663 ± 0.32 |
| RMRCTIMLMTGKRTCYLMRE | -0.216 ± 0.41 |
| RMSIWRFRMSLAQDGLGRFQ | 5.564 ± 0.044 |
| RMVTVAS | 1.68 ± 0.32 |
| RMWDSSCSLRGMRLGVYRAR | 0.396 ± 0.53 |
| RMYLVYNFLRLDLSARVVLA | inactive |
| RNADI | 0.343 ± 0.46 |
| RNAKMMTSSLVYNWFVFAER | 5.353 ± 0.045 |
| RNAQPLNGPRSPVSGTDWYS | 0.092 ± 1.1 |
| RNFDMPLLAYGMTWEQLMEF | 4.51 ± 0.058 |
| RNFRSCP | 0.797 ± 0.44 |
| RNIGAR | 0.635 ± 0.16 |
| RNPNVEVCRKQFRVGCSLAN | -0.931 ± 0.39 |
| RNSSYIDFIGRWH | inactive |
| RNTTKWKMMTLTFNCTRRKK | -0.766 ± 1 |
| RNYEGPPGDLGQQVLSHSMP | -0.853 ± 0.63 |
| RPHTLGHRCSCQSNFFLLPL | 0.025 ± 1.1 |
| RPLLKRKESM | 0.573 ± 0.28 |

| Substance | amyloid nucleation score |
| --- | --- |
| RPNFFVLNSNMNNYVQARVP | 4.59 ± 0.047 |
| RPNNLDMVH | 0.619 ± 0.57 |
| RPRRSTGCIFVDCKSKQHCI | 2.84 ± 0.15 |
| RPTHEAF | 5.87 ± 0.089 |
| RQMPVGGCVFMTKVCKT | 0.232 ± 0.64 |
| RQVANWAVVIGNPMVMNPEG | -0.295 ± 0.63 |
| RQVSHVNFAVLNINYNWYRS | 8.16 ± 0.084 |
| RRETRMGVSSVLDPVAGRWP | 1.58 ± 0.17 |
| RRLWGIALYRVSLVVFGSLY | -0.354 ± 0.25 |
| RRMYMQPTKLPFYIPGRMCP | inactive |
| RRSTWSISLS | -0.916 ± 0.45 |
| RRSWDTYMGERGHQLPNPCG | 0.93 ± 0.36 |
| RRYMSVDSK | inactive |
| RRYMVMSDWLDKPWWGYFGV | -0.855 ± 0.24 |
| RSCMMCTT | 0.266 ± 0.41 |
| RSCPFAFGEGG | 0.782 ± 0.55 |
| RSCSFRRLSGSVETLSGWAK | 0.35 ± 0.43 |
| RSDRVIGDMTGAECITLGRL | -0.82 ± 0.45 |
| RSDVFIGTSIFGALSCV | -0.025 ± 0.45 |
| RSFGSYCAGEGTRSPRDSRG | 0.172 ± 0.65 |
| RSFLWVFRKYRGW | 0.783 ± 0.66 |
| RSFMVRRFVNANIEIMIRRI | inactive |
| RSGESRWTYYLVEIYFDGSF | -0.913 ± 0.78 |
| RSGWVEPSNITVIWVKMLVQ | 0.166 ± 0.55 |
| RSGYGWTVLFERLSKHCEFK | -0.301 ± 0.39 |

| Substance | amyloid nucleation score |
| --- | --- |
| RSHMYSGYIYLIQKTFLREV | -1.29 ± 0.26 |
| RSHPKMMSDICSV | 0.178 ± 0.65 |
| RSHTTGLPS | 0.718 ± 0.15 |
| RSIDRYRHHNLCRNQYVM | -0.693 ± 1.1 |
| RSIWMKLCMWIECSDKETRF | 4.17 ± 0.13 |
| RSLLVEFRRYKQRH | 6.238 ± 0.062 |
| RSLSA | 1.02 ± 0.34 |
| RSMSRRGFLCLHR | 0.948 ± 0.67 |
| RSMYFGVQSLMYRSRLPKGS | 4.01 ± 0.067 |
| RSPDKDSMQTTLLIRRVTSW | 1.14 ± 0.48 |
| RSQIPNYYWQYMLVYSYLQG | 0.201 ± 0.74 |
| RSWKLGVDGWPLMSEFP | 1.64 ± 0.29 |
| RTARPILDPC | inactive |
| RTCSRGSFTYMEIGNVGRGC | 0.275 ± 0.5 |
| RTEDPKTDYVKRGKRKWRVW | -0.129 ± 1.1 |
| RTLFV | -0.146 ± 0.63 |
| RTRCYCVYFRLLVHFA | 0.057 ± 1.1 |
| RTSSL | -0.336 ± 0.49 |
| RTYGYRDIQVQYRFCFCRGD | 8.589 ± 0.057 |
| RTYLGLVLGF | inactive |
| RVCPFSQYHVFVS | -0.155 ± 0.18 |
| RVDKMMYSRLPCLVAV | 0.466 ± 0.49 |
| RVDYSMREFCLSSRAREDTV | -0.353 ± 0.42 |
| RVFNLNKKMNFSTISG | -0.942 ± 1.1 |
